Experimental data: patent publication US20200386770A1 (YUROGEN BIOSYSTEMS, published 2020)

Tests used:
human PD-L2 = target: T1, human PD-L2 (human, UniProt Q9BQ51 20-220, limits assumed); experiment: direct ELISA, human PD-L2 coated
T1 construct: Coated on plates in the direct ELISA; construct not described; also called programmed death ligand-2
T1 sequence (looked up): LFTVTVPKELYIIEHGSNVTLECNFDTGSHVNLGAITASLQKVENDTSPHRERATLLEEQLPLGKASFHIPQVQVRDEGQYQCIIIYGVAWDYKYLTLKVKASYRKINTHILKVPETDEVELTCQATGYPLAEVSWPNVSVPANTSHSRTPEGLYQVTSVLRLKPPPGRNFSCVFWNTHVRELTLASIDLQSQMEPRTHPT
Description: The procedures of the direct ELISA are described in the method below. […] The negative control was conducted using the same procedures as the anti-human PD-L1 antibodies, except that a blank buffer is used instead of the anti-human PD-L1 antibodies. The blank buffer is the buffer for diluting the anti-human PD-L1 antibodies. […] Thereby, 2C5, 3B8, 8C6, 10H6, 11G7, and 12H2 can eliminate the cross-reactivity of human PD-L2.
(§1) 3. Direct ELISA with rabbit monoclonal antibodies against human PD-L1 or PD-L2. Human PD-L1 and PD-L2 were coated on high binding ELISA plates at 4° C. overnight in 1×PBS, pH7.4. Coated plates were washed with Wash Buffer (1×PBS supplemented with 0.5% (V/V) Tween-20), and blocked with Blocking Buffer (1×PBS supplemented with 5% (W/V) skim milk). After blocking, plates were incubated with rabbit anti-PD-L1 monoclonal antibodies for 1 hour at room temperature, followed by washing and incubation with goat anti-rabbit IgG antibody conjugated with HRP. After a final wash, plated were developed using colorimetric reaction catalyzed by HRP to see if a monoclonal antibody can or cannot bind to PD-L1 and PD-L2.

human PD-L1 [1] = target: T2, human PD-L1 (human, UniProt Q9NZQ7 19-238, limits assumed); experiment: direct ELISA, 10 ng/ml human PD-L1
T2 construct: also called programmed death ligand-1; CD274
Description: as §1

human PD-L1 [2] = target: T2, human PD-L1; experiment: sandwich ELISA (8C6 capture, 2C5 detection) compared with direct ELISA
Description: As compared to the direct ELISA with 8C6 shown in FIG. […] The sandwich ELISA enhances the sensitivity of human PD-L1 to 2C5, as compared to the direct ELISA.
as §1
5. Sandwich ELISA with rabbit monoclonal antibodies against human PD-L1. Capture antibodies were coated on high binding ELISA plates at 4° C. overnight in bicarbonate buffer. Coated plates were washed with Wash Buffer (1×PBS supplemented with 0.5% (V/V) Tween-20), and blocked with Blocking Buffer (1×PBS supplemented with 5% (W/V) skim milk). […]

T2 sequence (Q9NZQ7 19-238 limits assumed): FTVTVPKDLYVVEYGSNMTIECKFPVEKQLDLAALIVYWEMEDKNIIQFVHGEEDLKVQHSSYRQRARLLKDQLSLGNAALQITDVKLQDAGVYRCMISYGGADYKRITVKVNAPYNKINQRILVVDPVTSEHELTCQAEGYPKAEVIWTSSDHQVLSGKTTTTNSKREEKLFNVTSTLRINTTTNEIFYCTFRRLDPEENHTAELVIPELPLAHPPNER

B1: rabbit anti-human PD-L1 mAb 8C6 (antibody, V domains shown)
VH: QSVEESGGRLVTPGTPLTLTCTASGFDISRHHMCWVRQAPGEGLEYIGFINPPGSAYYANWAKGRFTISRTSTTVALEMTSLTTEDTATYFCARWRFDDYGDLWGQGTLVTVSS
VL: AYDMTQTPASVEVAVGGTVTIKCQASESIASYLAWYQQKPGQPPKLLIYKASTLASGVSSRFRGSGSGTEFTLTISGVECADAATYYCQQGYSATNIDNAFGGGTEVVVKG
notes: Recombinant rabbit IgG; Full heavy chain assembled from the Fab heavy chain entry followed by the Fc entry; Biotinylated when used as detection antibody in the sandwich ELISA
B1: no binding (tested: concentrations up to 1000 ng/ml) (human PD-L2).

B2: rabbit anti-human PD-L1 mAb 12H2 (antibody, V domains shown)
VH: QEQLVESGGGLVQPEGSLTLTCTASGFSFSSSYYMCWVRQAPGKGLEWIACIWTSNGGRTYYANWAKGRFTISETSSTTVTLQMTSLTAADTATYFCARDDDTGSGYYNLWGPGTLVTVSS
VL: QIVMTQTASPVSAAVGGTVTINCQASESISSWLAWYQQKPGQPPKLLIYKASTLASGVPSRFKGSGSGTEFTLTISDLECADAATYYCQHGYYFGSVANTFGGGTEVVVKG
notes: Recombinant rabbit IgG; Full heavy chain assembled from the Fab heavy chain entry followed by the Fc entry
B2: no binding (tested: concentrations up to 1000 ng/ml) (human PD-L2).

B3: rabbit anti-human PD-L1 mAb 11G7 (antibody, V domains shown)
VH: QSVEESGGRLVTPGTPLTLTCTVSGIDLSSYDMTWVRQAPGKGLEYIGYISYFDKTYYATWAKGRFTISKTSTTVDLKMTSLTTEDTATYFCVRDRPDGITANLWGQGTLVTVSS
VL: AQLPTQTASPVSAAVGGTVTINCQSSHNVYSDNRLSWYQQKPGQPPKLLIYWASILASGVPSRFKGSGSGTQFTLTITDLECDDAATYYCAGGYSGNIYTFGGGTEVVVKG
notes: as for B2
For B3, the binding result (human PD-L2) was “no binding (tested: concentrations up to 1000 ng/ml)” and the “OD450 at 10 ng/ml” value (human PD-L1 [1]) was ~0.1 OD450.

B4: rabbit anti-human PD-L1 mAb 10H6 (antibody, V domains shown)
VH: QEQLVESGGGLVQPEGSLTLTCTASGFSFSSIYYLCWVRQAPGKGLEWIACIYGGNSDNTWYASWAKGRFTISKTSSTTVTLQMTSLTAADTATYFCARGYDIYGYAINLWGPGTLVTVSS
VL: DVVMTQTPASVEAAVGGTVTIKCQASQSIGGYLAWYQQKPGQPPKLLIYRASTLESGVASRFKGSGSGTEFTLTISDLECADAATYYCQCTYDSSNSRIYPNVFGGGTEVVVKG
notes: as for B2
B4: no binding (tested: concentrations up to 1000 ng/ml) (human PD-L2).

B5: rabbit anti-human PD-L1 mAb 3B8 (antibody, V domains shown)
VH: QSLEESGGDLVKPGASRTLTCTASGFSFSNNAYMCWVRQAPGKGLELIACIYSRYGNTHYASWAKGRFTISKTSSTTVTLQMTSLTAADTATYFCARGASGSSDYSFYFNLWGPGTLVTVSS
VL: AYDMTQTPASVEVAVGGTVTIKCQASQSISSWLAWYQQKPGQPPKLLIYDAYDLASGVPSRFKGSGSGTQFTLTISGVECTDAATYYCQQGYSSENIDNSFGGGTDVVVKG
notes: as for B1
B5: no binding (tested: concentrations up to 1000 ng/ml) (human PD-L2).

B6: rabbit anti-human PD-L1 mAb 2C5 (antibody, V domains shown)
VH: QSVEESGGRLVTPGTPLTLTCTVSGFSLNNDNVGWVRQAPGKGLEWVGLIDILGSSYYASWAKGRFTISKTSNTVDLKITSPTIEDTATYFCAREGDGSFDPWGPGTLVTVSS
VL: AQVLTQTPSPVSAAVGGTVTINCQASQNVYNKKNLAWYQQKLGQPPKLLIYKASTLASGVPSRFSGSGSGTQFTLTISDLECDDAATYYCQGDYIGSRAFGGGTEVVVKG
notes: as for B1
B6 was tested, and the binding result (human PD-L2) was “no binding (tested: concentrations up to 1000 ng/ml)” and the “fold sensitivity, sandwich ELISA against direct ELISA” value (human PD-L1 [2]) was ≥ 2 fold.
